Biological target: T1, FKHR (Homo sapiens, UniProt Q12778)
T1 construct: made in house; host or cells: in vitro translation
Test: In vitro interaction with in vitro translated FKHR
Type: binding
Conditions: GST fusion constructs

T1 sequence (Q12778 whole entry, species assumed): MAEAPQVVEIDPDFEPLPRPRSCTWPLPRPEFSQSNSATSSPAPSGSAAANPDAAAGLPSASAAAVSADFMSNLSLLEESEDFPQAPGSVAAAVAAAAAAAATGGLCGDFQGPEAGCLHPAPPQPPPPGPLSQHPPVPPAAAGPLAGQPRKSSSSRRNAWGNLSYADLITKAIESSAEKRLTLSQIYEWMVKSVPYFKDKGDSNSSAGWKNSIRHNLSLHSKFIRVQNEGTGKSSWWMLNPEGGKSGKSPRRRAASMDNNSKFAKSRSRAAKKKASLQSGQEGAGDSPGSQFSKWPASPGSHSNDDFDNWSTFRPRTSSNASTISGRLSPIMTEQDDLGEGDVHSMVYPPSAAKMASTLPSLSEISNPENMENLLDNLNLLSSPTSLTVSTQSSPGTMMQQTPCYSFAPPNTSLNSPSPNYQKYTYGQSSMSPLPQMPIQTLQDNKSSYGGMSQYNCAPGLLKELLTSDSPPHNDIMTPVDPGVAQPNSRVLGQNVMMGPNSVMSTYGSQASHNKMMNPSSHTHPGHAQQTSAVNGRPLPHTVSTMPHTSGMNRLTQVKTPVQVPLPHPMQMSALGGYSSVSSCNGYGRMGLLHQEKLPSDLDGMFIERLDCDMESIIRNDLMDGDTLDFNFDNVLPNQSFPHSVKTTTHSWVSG

B1: GST-PGC-1 (amino acids 1-190): GST fusion protein of amino acids 1-190 of PGC-1 (SEQ ID NO:2) (protein)
chain: MAWDMCSQDSVWSDIECAALVGEDQPLCPDLPELDLSELDVNDLDTDSFLGGLKWCSDQSEIISNQYNNEPANIFEKIDEENEANLLAVLTETLDSLPVDEDGLPSFDALTDGAVTTDNEASPSSMPDGTPPPQEAEEPSLLKKLLLAPANTQLSYNECSGLSTQNHAANHTHRIRTNPAIVKTENSWSN
modifications: left off: a dimerising Fc or GST
- physical interaction with FKHR: not
